Results: patent US20170002055A1, “Novel peptides and combination of peptides for use in immunotherapy against ovarian cancer and other cancers” (immatics biotechnologies GmbH, priority 2015, published 2017)

biological target: HLA-A*02:01 (Homo sapiens, UniProt P04439, D140Y/D185E/D98H/E176V/E277Q/G131W/G231S/I119V/I121R/I166T/I218V/L300P/L318F/N151K/N90K/P208A/P217A/Q86G/Q94H/R138H/R169H/T345S); test: MHC binding assay (UV-ligand exchange, β2m ELISA, peptide exchange yield); settings: MHC class I binding score; binding to HLA-A*02:01 ranged by peptide exchange yield (UV-ligand exchange, β2m ELISA)
Excerpt: Candidate peptides for T cell based therapies according to the present invention were further tested for their MHC binding capacity (affinity). The individual peptide-MHC complexes were produced by UV-ligand exchange, where a UV-sensitive peptide is cleaved upon UV-irradiation, and exchanged with the peptide of interest as analyzed. Only peptide candidates that can effectively bind and stabilize the peptide-receptive MHC molecules prevent dissociation of the MHC complexes. To determine the yield of the exchange reaction, an ELISA was performed based on the detection of the light chain (β2m) of stabilized MHC complexes. The assay was performed as generally described in Rodenko et al. (Rodenko et al., 2006).
96 well MAXISorp plates (NUNC) were coated over night with 2 ug/ml streptavidin in PBS at room temperature, washed 4× and blocked for 1h at 37° C. in 2% BSA containing blocking buffer. […] Peptide-MHC monomers of the UV-exchange reaction were diluted 100 fold in blocking buffer. Samples were incubated for 1h at 37° C., washed four times, incubated with 2 ug/ml HRP conjugated anti-β2m for 1h at 37° C., washed again and detected with TMB solution that is stopped with […]. Absorption was measured at 450 nm. Candidate peptides that show a high exchange yield (preferably higher than 50%, most preferred higher than 75%) are generally preferred for a generation and production of antibodies or fragments thereof, and/or T cell receptors or fragments thereof, as they show sufficient avidity to the MHC molecules and prevent dissociation of the MHC complexes.

Row | Substance | Peptide exchange
1 | 94 (YLIDIKTIAI; listed as Homo sapiens) [compound 94] | “++” (≧20% = ++)
2 | 95 (SVIPQIQKV; listed as Homo sapiens) [compound 95] | “+++” (≧50 = +++)
3 | 96 (YIFTDNPAAV; listed as Homo sapiens) [compound 96] | “+++” (≧50 = +++)
4 | 97 (SLINGSFLV; listed as Homo sapiens) [compound 97] | “+++” (≧50 = +++)
5 | 98 (LIIDQADIYL; listed as Homo sapiens) [compound 98] | “+++” (≧50 = +++)
6 | 99 (ALVSKGLATV; listed as Homo sapiens) [compound 99] | “++” (≧20% = ++)
7 | 100 (YLLSTNAQL; listed as Homo sapiens) [compound 100] | “++++” (≧75% = ++++)
8 | 101 (ILVGGGALATV; listed as Homo sapiens) [compound 101] | “+++” (≧50 = +++)
9 | 102 (YLFESEGLVL; listed as Homo sapiens) [compound 102] | “+++” (≧50 = +++)
10 | 103 (TLAEEVVAL; listed as Homo sapiens) [compound 103] | “+++” (≧50 = +++)
11 | 104 (STMEQNFLL; listed as Homo sapiens) [compound 104] | “++++” (≧75% = ++++)
12 | 106 (LLYDAVHIVSV; listed as Homo sapiens) [compound 106] | “+++” (≧50 = +++)
13 | 107 (FLQPVDDTQHL; listed as Homo sapiens) [compound 107] | “+++” (≧50 = +++)
14 | 109 (IILSILEQA; listed as Homo sapiens) [compound 109] | “++++” (≧75% = ++++)
15 | 110 (FLSQVDFEL; listed as Homo sapiens) [compound 110] | “+++” (≧50 = +++)
16 | 111 (YVWGFYPAEV; listed as Homo sapiens) [compound 111] | “+++” (≧50 = +++)

Row | Substance | Peptide exchange
17 | 114 (SLVGEPILQNV; listed as Homo sapiens) [compound 114] | “++” (≧20% = ++)
18 | 115 (AIAGAGILYGV; listed as Homo sapiens) [compound 115] | “++” (≧20% = ++)
19 | 116 (YHIDEEVGF; listed as Homo sapiens) [compound 116] | “+” (≧10% = +)
20 | 117 (ILPDGEDFLAV; listed as Homo sapiens) [compound 117] | “+++” (≧50 = +++)
21 | 119 (FLYIGDIVSL; listed as Homo sapiens) [compound 119] | “++++” (≧75% = ++++)
22 | 120 (ALLGIPLTLV; listed as Homo sapiens) [compound 120] | “+++” (≧50 = +++)
23 | 121 (GVVDPRAISVL; listed as Homo sapiens) [compound 121] | “++” (≧20% = ++)
24 | 122 (FLLAEDDIYL; listed as Homo sapiens) [compound 122] | “+++” (≧50 = +++)
25 | 123 (NLWDLTDASVV; listed as Homo sapiens) [compound 123] | “+++” (≧50 = +++)
26 | 124 (ALYETELADA; listed as Homo sapiens) [compound 124] | “++” (≧20% = ++)
27 | 125 (VQIHQVAQV; listed as Homo sapiens) [compound 125] | “+++” (≧50 = +++)
28 | 126 (VLAYFLPEA; listed as Homo sapiens) [compound 126] | “++++” (≧75% = ++++)
29 | 127 (KIGDEPPKV; listed as Homo sapiens) [compound 127] | “++” (≧20% = ++)
30 | 128 (YLFDDPLSAV; listed as Homo sapiens) [compound 128] | “++” (≧20% = ++)
31 | 129 (GLLDGGVDILL; listed as Homo sapiens) [compound 129] | “+++” (≧50 = +++)
32 | 130 (FLWNGEDSALL; listed as Homo sapiens) [compound 130] | “+++” (≧50 = +++)
